From patent publication US20200016201A1, “CHIMERIC ANTIGEN RECEPTORS AND COMPOSITIONS AND METHODS OF USE THEREOF” (published 2020)

Target: Lym-1 antigen (HLA-Dr10) on Raji cells (human)
Experiment: avidity constant, Scatchard plot analysis on the target tumor cell line (Raji)

Ka: 4.02e+08 M⁻¹
B1: Lym-1 (antibody, V domains shown)
VH: QLKESGPGLVAPSQSLSITCTISGFSLTSYGVHWVRQPPGKGLEWLVVIWSDGSTTYNSALKSRLSISKDNSKSQVFLKMNSLQTDDTAIYYCASHYGSTLAFASWGHGTLVTVSA
VL: DIQMTQSPASLSASVGETVTIICRASVNIYSYLAWYQQKQGKSPQLLVYNAKILAEGVPSRFSGSGSGTQFSLKINSLQPEDFGSYYCQHHYGTFTFGSGTKLEIK
